Data on 24 molecules can be found in US20260250381A1.

Numbering of substitutions follows the chain as printed.

The labels stand for the following.
T1: human TREM2 (human) (UniProt Q9NZC2)
T1 sequence (looked up): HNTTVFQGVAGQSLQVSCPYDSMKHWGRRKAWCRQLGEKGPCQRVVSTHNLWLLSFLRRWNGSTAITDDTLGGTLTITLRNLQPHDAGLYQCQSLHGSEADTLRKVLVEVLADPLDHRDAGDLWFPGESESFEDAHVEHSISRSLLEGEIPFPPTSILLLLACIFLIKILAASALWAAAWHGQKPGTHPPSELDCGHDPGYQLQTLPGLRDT

B1: 6E7 variant V9 (antibody, V domains shown)
VH: EVQLVQSGAEVKKPGESLKISCKGSGYSFTSYWIAWVRQMPGKGLEWMGIIYPGDSDTRYSPSFQGQVTISADKSISTAYLQWSSLKASDTAMYFCARQRGFYYDSSDYFDYWGQGTLVTVSS
VL: DIQMTQSPSSVSASVGDRVTITCRASQGISSWLAWYQQKPGKAPKLLIYAASSLQNGVPSRFSGSGSGTDFTLTISSLQPEDFATYFCQQADSFPRTFGQGTKLEIK
B2: 6E7 variant V83 (antibody, V domains shown)
VH: B1 VH with G101T
VL: B1 VL with D92V
B3: 6E7 variant V92 (antibody, V domains shown)
VH: B1 VH with G101T, Y103H
VL: B1 VL
B4: 6E7 variant V94 (antibody, V domains shown)
VH: B1 VH with G101T
VL: B1 VL with S52A
B5: 6E7 variant V8 (antibody, V domains shown)
VH: B1 VH with R59K, G101T
VL: B1 VL
B6: 6E7 variant V23 (antibody, V domains shown)
VH: B1 VH with G101T
VL: B1 VL with R96L
B7: 6E7 variant V18 (antibody, V domains shown)
VH: B1 VH with W33H, G101T
VL: B1 VL
B8: 6E7 variant V10 (antibody, V domains shown)
VH: B1 VH with G101T
VL: B1 VL with A50S
B9: 6E7 variant V32 (antibody, V domains shown)
VH: B1 VH with P62N, G101T
VL: B1 VL
B10: 6E7 variant V91 (antibody, V domains shown)
VH: B1 VH with G54D, G101T
VL: B1 VL
B11: 6E7 variant V93 (antibody, V domains shown)
VH: B1 VH with G101T
VL: B1 VL with S31G
B12: 6E7 variant V30 (antibody, V domains shown)
VH: B1 VH with Y27S, G101T
VL: B1 VL
B13: 6E7 variant V31 (antibody, V domains shown)
VH: B1 VH with D57E, G101T
VL: B1 VL
B14: 6E7 variant V90 (antibody, V domains shown)
VH: B1 VH with Y32E, G101T
VL: B1 VL with S31R
B15: 6E7 variant V33 (antibody, V domains shown)
VH: B1 VH with G101T, Y104G
VL: B1 VL
B16: 6E7 variant V21 (antibody, V domains shown)
VH: B1 VH with G101T, Y109F
VL: B1 VL
B17: 6E7 variant V20 (antibody, V domains shown)
VH: B1 VH with I50R, G101T
VL: B1 VL
B18: 6E7 variant V6 (antibody, V domains shown)
VH: B1 VH with Y32M, G101T
VL: B1 VL
B19: 6E7 variant V22 (antibody, V domains shown)
VH: B1 VH with G101T
VL: B1 VL with A50R
B20: 6E7 variant V11 (antibody, V domains shown)
VH: B1 VH with G101T
VL: B1 VL with D92A
B21: 6E7 variant V19 (antibody, V domains shown)
VH: B1 VH with Y32S, G101T
VL: B1 VL
B22: 6E7 variant V7 (antibody, V domains shown)
VH: B1 VH with Y32E, G101T
VL: B1 VL
B23: 6E7 variant V36 (antibody, V domains shown)
VH: B1 VH with I34L, Q99S, G101T
VL: B1 VL with L54R, F94Y
B24: 6E7 variant V37 (antibody, V domains shown)
VH: B1 VH with F29H, Q65A, Q99S, G101T
VL: B1 VL with N56W, F94Y

The target of one experiment is T1, human TREM2 (human). Kind of experiment: 2nd screen, 100 nM Ab.
On to B1, for which the Binding Signal (fold over 6E7 parental antibody) came to 0.54 fold.
The same measure, in the same setting: with B2 the figure was 0.29 fold; with B3, 0.65 fold.
Same read-out and setting: for B4 the value was 0.87 fold; for B5, 0.77 fold.
Same read-out and setting: with B6 the figure was 0.4 fold; with B7, 0.42 fold.
B8: the Binding Signal (fold over 6E7 parental antibody) is 0.7 fold.
Still for that read-out and setting: with B9 the figure was 0.89 fold; with B10, 0.61 fold.
Still for that read-out and setting: for B11 the value was 1.05 fold.
Still for that read-out and setting: for B12 the value was 0.72 fold; for B13, 0.73 fold.
As for B14, the Binding Signal (fold over 6E7 parental antibody) turned out to be 0.36 fold.
Same read-out and setting: for B15 the value was 0.34 fold.
Same read-out and setting: with B16 the figure was 0.68 fold; with B17, 0.52 fold.
Regarding B18, the Binding Signal (fold over 6E7 parental antibody) was 0.56 fold.
On the same count and under the same terms, with B19 the figure was 0.71 fold; with B20, 0.42 fold.
Same read-out and setting: with B21 the figure was 0.48 fold; with B22, 0.32 fold.

In another experiment the target is T1, human TREM2 (human). Put plainly: 2nd screen, 2 nM Ab.
B23: the Binding Signal (fold over 6E7 parental antibody) worked out at 4 fold.
Same read-out and setting: for B24 the value was 3.69 fold.

The target in another experiment is T1, human TREM2 (human). Kind of experiment: 1st screen, 110 nM Ab.
Regarding B1, the Binding Signal (fold over 6E7 parental antibody) was 0.67 fold.
The same measure, in the same setting: with B2 the figure was 0.2 fold; with B3, 0.22 fold.
On the same count and under the same terms, with B4 the figure was 0.31 fold; with B5, 0.28 fold; with B6, 0.4 fold.
On the same count and under the same terms, for B7 the value was 0.17 fold; for B8, 0.76 fold.
For B9, the Binding Signal (fold over 6E7 parental antibody) came out at 0.82 fold.
The same measure, in the same setting: for B10 the value was 0.25 fold; for B11, 0.35 fold; for B12, 0.79 fold.
Same read-out and setting: with B13 the figure was 0.61 fold; with B14, 0.33 fold.
Same read-out and setting: for B15 the value was 0.23 fold; for B16, 0.76 fold; for B17, 0.18 fold.
On to B18, for which the Binding Signal (fold over 6E7 parental antibody) was determined as 0.2 fold.
As to B19, the Binding Signal (fold over 6E7 parental antibody) was found to be 0.3 fold.
For B20, the Binding Signal (fold over 6E7 parental antibody) is 0.79 fold.
Same read-out and setting: with B21 the figure was 0.59 fold; with B22, 0.11 fold.

Another experiment concerns the target T1, human TREM2 (human). Put plainly: 2nd screen, 10 nM Ab.
For the molecule B23, the Binding Signal (fold over 6E7 parental antibody) turned out to be 3.44 fold.
Same read-out and setting: for B24 the value was 3.49 fold.

The next experiment addresses T1, human TREM2 (human). Put plainly: 1st screen, 10 nM Ab.
Take B23: the Binding Signal (fold over 6E7 parental antibody) came to 3.38 fold.
The same measure, in the same setting: for B24 the value was 3.46 fold.
